According to paper PMC3162391 (The Journal of Biological Chemistry, 2011):

Target: the molecule itself
Experiment: FRET or BRET

B1: CD5 BRET pair (CD5Luc and CD5GFP) (receptor, human, UniProt P06127 25-495, looked up)
chain: RLSWYDPDFQARLTRSNSKCQGQLEVYLKDGWHMVCSQSWGRSSKQWEDPSQASKVCQRLNCGVPLSLGPFLVTYTPQSSIICYGQLGSFSNCSHSRNDMCHSLGLTCLEPQKTTPPTTRPPPTTTPEPTAPPRLQLVAQSGGQHCAGVVEFYSGSLGGTISYEAQDKTQDLENFLCNNLQCGSFLKHLPETEAGRAQDPGEPREHQPLPIQWKIQNSSCTSLEHCFRKIKPQKSGRVLALLCSGFQPKVQSRLVGGSSICEGTVEVRQGAQWAALCDSSSARSSLRWEEVCREQQCGSVNSYRVLDAGDPTSRGLFCPHQKLSQCHELWERNSYCKKVFVTCQDPNPAGLAAGTVASIILALVLLVVLLVVCGPLAYKKLVKKFRQKKQRQWIGPTGMNQNMSFHRNHTATVRSHAENPTASHVDNEYSQPPRNSHLSAYPALEGALHRSSMQPDNSSDSDYDLHGAQRL
stoichiometry N: 2
